The values that follow come from publication PMC3776922.

The assay addresses LAT-1(37-542)^GPS(T530A)::6xHis (C. elegans). The assay is described as follows: AUC; sedimentation equilibrium of the dimer fraction of the LAT-1 ectodomain; 20 uM - 60 uM protein, native conditions in PBS, 20°C / room temperature, 48 hr at 17,000 and 20,000 rpm, ideal monodisperse model.

For the substance “LAT-1(37-542)^GPS(T530A)::6xHis (domain or fragment)”, the stoichiometry N (in general, a count of units in the complex or per binding partner) turned out to be 2.
